The values that follow come from paper PMC3187938.

In this assay the target is affinity-matured, humanized, antiprostate stem-cell antigen (PSCA) minibody (clone A11.1 2C3). The assay can be described thus: SEC. For orientation: Size exclusion chromatography separates by hydrodynamic size, large species first.

B1: affinity-matured, humanized, antiprostate stem-cell antigen (PSCA) minibody (clone A11.1 2C3) (antibody, V domains shown)
VH: EVQLVEYGGGLVQPGGSLRLSCAASGFNIKDYYIHWVRQAPGKGLEWVAWIDPENGDTEFVPKFQGRATMSADTSKNTAYLQMNSLRAEDTAVYYCKTGGFWGQGTLVTVSS
VL: DIQLTQSPSTLSASMGDRVTITCSASSSVRFIHWYQQKPGKAPKRLIYDTSKLASGVPSRFSGSGSGTDFTLTISSLQPEDFATYYCQQWGSSPFTFGQGTKVEIK
By stoichiometry N is commonly meant a count of units in the complex or per binding partner. With B1, the stoichiometry N was 2.
